Measured values as given in the DeepSol protein solubility set.

assay: soluble on expression in E. coli; label from the status in PepcDB or PDB records

Sequence	soluble on expression in E. coli
MSDAPTVVAYLGPAGTFTEEALYKFADAGVFGDGEIEQLPAKSPQEAVDAVRHGTAQFAVVAIENFVDGPVTPTFDALDQGSNVQIIAEEELDIAFSIMVRPGTSLADVKTLATHPVGYQQVKNWMATTIPDAMYLSASSNGAGAQMVAEGTADAAAAPSRAAELFGLERLVDDVADVRGARTRFVAVQAQAA	not soluble
MSDDHHDDEHFHTGDSGAAATFPKQCSALRKNEHVMIKGRPCKIVEMSTSKTGKHGHAKVHMVAIDIFTSKKLEDICPSTHNMDVPVVKRREYLLMAIDDGYCSLMDPESCEQKDDLKLPDTELGQQIRDAYEKDEGSVLVQVVSAIGEEAILGWKVSTKE	not soluble
MSDEAIHDIFVIGGGINGCGIARDAVGRGYSVALAEMNDFASGTSSAATKLIHGGLRYLEHYEFRLVREALMEREVLWAMAPHIIWPMRFVLPFQKGGVRPAWLVRLGLFLYDHLGGRKLLPATRSLDLRRDPAGKPLKPIFARAFEYSDGWVDDARLVVLNARDAADRGAVILNRTQVVSARREGAFWRVETKNAAGESKTYRARMLVNAAGPWVDKVLAATFGKNNVHNVRLVQGSHIIVRKKFADPRAYFFQNPDGRIIFAIPYEQDFTLIGTTDRDYTADPRAVKISDEEISYLCNAASEYFAEPVKPADIVWTYSGVRPLFDDGASKAQEATRDYVLKTEGAEGEAPLLNIFGGKLTTYRRLAEHALEKIGDALGEKGTPWTAGSHLPGGNFGAEAYAEEVKALRSRYPFLDRRHAERLVRCYGTDAVAIIGAAADTTALGRHFGGTLYEAEVRWLMAREWALTAEDILWRRTKQGLFLTPEEVLGLTDYIDDIAGGRLKAILEHHHHHH	soluble
MSDGFSVDPAELEGFAGVAEGHAGTAGQIKGLVDRADVGDKSWGVVGLFVKSTYTGMLGDLKELFGDLEEGLRGVGERFRATAEDYRGPEEAIQRAFDGIDTGSGGR	not soluble
MSDHEEESHGASPTSPASSGASSPLAPISPRSEGNAPESPSGDVQDIYKDESFEAPASPARDSSAPASPSAASPAGSRSPSPSPVKTKSKVMIDSDEDSDAEESANKRALIDSDASDAEGKKRRVMLDSDDSDHEGTSKKEPTTKNLFGDDSDDDDEDRPKKTNDLDEFVEGRDEEESQETSKPAYDSDDDDGPVDRHGRHFEWDFDKMLAEKKAERKKKTRRGGKDGGIDIINDDDGTVSRLVERMKHAAKSDRNANIERKPAFQKIKMLPEVKAIMLRAGIVEVLIENGFMSALSEWLAPLPDKCLPALDIRITVLKLLHNPRFWKLDRSTLKQSGLGKAVMMLYKHPNETKENKGIANKLIGEWARPIYHLDTDYSTVSRQEREERDYSRMPEKRKKKINSRDEEEPNDDDQPKRPRIRDADEMGPTKSDDLKPGDKGYIPRARVPKPSTKDYVIRPEWRVTGAFKGEKKSTGNNRYDQTFRDFQERTKKSKANRIVKVSLEGRNMGI	soluble
MSDISEKFWDASIEELKKGYVFDEEKEEYICLACGETFIKGVIYQDNQILYEAEKFVQLHIQNEHTSMFDYLLNMDKKFTGLTDLQKKMVQFFHMGLNDKEIVKEMDGGSTSTIRNHRFTLREKMKQAKVFLALMELSEEKSKVQTKFVPIHRTATMVDDRYNITEEENDEVLKAHFTEGLDGPLSKFPKKQKRKLIILRHLVKKFDSNKKYTEKEVNTVIENVYPDFVTLRRYLIEYGFLDRTADGSQYWVKL	not soluble
MSDNKESKKISIEIDGKDYQALPNQSIIEVADANGIYIPRFCYHKKLSVAANCRMCLVDVEGARRASPACATPVMDGMKVKTRSEEALQMQKDVMEFLLINHPLDCPICDQGGECELQDIAMGYGNTTSEYLESKRTVEDPELGPLVATDMTRCILCTRCVRFGEEIAGVKELGVMGRGDHSAISTYISGEMVDSEISANIIDLCPVGALTSKPFRFKARSWELKQFPTLSAGDALATEINAHIYQNKLVRVVPRENDITGTWIADRDRFEYTGLYSQDRIQQPMIKKTGDWVDLSWEEALDFVKVAIQKTIEKDGADAISAIVSETATSEEMYLTKKLLAAVGSVNIDARVRQYADIPGISAGKGLSCSLEDIRESDFILVFGSNIRKEYPLVNIAIKDAVEKNAAKAVAWNVCDYNFNYDIKQVRLAADNIQYIALSLLKAIFVRANLPYGDLDEILRKVDPAAEVRDVADRIVAAKAPKIIIGQDIVNTSGFETVFSILDVLEKVTSVRGGVLATNVNSVAADRIFSSSKSKFSTYKCLNGRTNTKLLLTVHTELAKDSLYGEQKLRNALENIDIVVSFTAFADKFTKDTADIILPIATHYETSGSFVDLFGNRKEFKQVVKPYAGNKELWRVLRVLGNLLELEGFDYNSIAEVTNDAYATRARVGVNHVTQILNANLDYQKEVAFVASNSMYSTTSLLRRAEPLQKTTDAKRFAGVRISQELADEIGLKGQSGVIKIYNIDNEINPEVVVDPSLQAKNIMLPRALFKDFLSSDNISIKLVEEER	not soluble
MSDNLKIGLQYLTPKHALTRLAGKLASAKMGWLTTAVIKWFIKQYNVNMDEAKNPDPEAYSTFNNFFVRELEDGARPINEDDSVISHPADACVSQFGPIMDGKLVQAKGHVYSAQELLGGDEALAAEFMGGEFATLYLSPSDYHRVHMPCDATLRKMIYVPGDLFSVNPLTAENVPNLFARNERVVCIFDTEFGPMAQILVGATIVGSIETTWAETVTPPTGPAVKTWHYPLSGDDMICFKKGEEMGRFKLGSTVINLFAPNSIKFDDSMENGTPTRMGTPFAHIVKLEHHHHHH	soluble
MSDPADVFDLVGLTEYEATALEQLLSLGRTTAPNLAEASGIPKARVYGVLESLSDRGFIKLIPGRPKEYQPKSPSDILDRAVENRKQSYESFAADMDSYRDAFLAEYEPRFERANEDISPTAELFHVVDVGEPSERETRRLYDDADETLRVITNSFAYLDNVERALAETLDRGVEVNVLFLHPDALPPEKAAVQADIVDRLTAEYPAIDLRFSTEKLPWRGTLVDPSMDYDSGEAILLVEEPDVPNHMRQAAITDNGSFVAGMKRYFDLVWEYESVQRSN	not soluble
MSDPAGGKALRRDAAENRQRLLDAAATVFSARGLDVGVDEIARVAGVGIGTLYRRFPTKDALISELVRQVLEDFLTLAHEALSAPEGEGLEQVLYGSGAILASNRGCLSRMWNDDQTTVLRNEYRRILFELLAGAKQHGRIREDATEADLDLIFWSLRGVVATTRGVTDTGWRRILAVMIAGLRPGAERLDAAPLSAQDVAQIMENLWPR	not soluble
MSDVNAPAGLAALEARLQQDLAWLDLPAKPWVKPRTNAGQAVLDVAIIGGGMAGLALAAELRHLGVAAVIFDQSPAGFEGPWATTARMETLRSPKQLTGPALGLPALTFRAWYEAQFGADGWAALDKIPRLQWAEYLRWYRKALALDVRNEHRVSRVAPRTDGLVELDIMTPGQTRFMLARHVVLATGRDGLGGPWVPDFARQLPDHLWTHSAAGLQDDWFEGRRVAVIGGGASAMDSAATALEAGAQRVDLLIRRAELPRVNKGKGVGNPGMVHGYWRLPDIWKWRIRHYLNRQQVPPPRGSTLRVSRSGRARFLLDNPVLAVEANPAGGVWLQTSKARVEADFVVFATGFRTDFELRPEFAPFSSHIRVWQDRFEAPEGEADSELAVLPDLGNCFEFQEKTPGACPGLNHIHCFSYPAALSYGAVSGDIPAISEGSKRLAHALIGLLFNEDIALHFESMRSYAEPELLGDEWVASEPGTEELRPLEHHHHHH	not soluble
MSEAWITLATNDNYAQGALVLVHSLRTAGTTRKIHCLISNEVSAPVRKQLEEHFDDVSIVDVFNSNDSDNLRLIERPDLGVTFTKLHCWRLTQYTKCVFLDADTLVLRNADELFTRPDFSAASDIGWPDSFNSGVFVYVPNNETYRQLVDFAVTHGSYDGGDQGLLNDFFSNWRDLPSEHRLPFIYNMTAGAFYTYAAAYKRYGANTKIVHFIGSVKPWHGSAAVHTGEHFQQWQKIYHAHVNHTSRTNEHAAVFPSHHHTPEHRSHSADHPKIERKDSIVREIGNFVMHVVQSVNILPSYDTDANTSDSHRNNEPHKHDQQREEHHELPHNKFQTPHEESQDIVGSTDCFGSQMPKYNADSETDREVEQITNNTPCPAFVPFERREEYQAASPSTEERRAAWEAGQPDYLGRDAFVHIQEALNRALNE	not soluble
MSEFEGWIKWLEPVFLLWKPEDPGYERPAYRDWTKEEDEPKYSPEKELALLDKQILASDGFDIDFTHFRCVFNYHLAYLDSHEFVDEPETTRDLLERLSRKALDDYNQESVVKANFHFCCAIMFLITFEVVDPYDNLIKLFQTRVRHAEDIVTEYVFCRPKPNQGVECIGVKNNDGKDVQTNVKEQEIPCMYGWFLRVITITFTLQIGVGASICHKE	soluble
MSEGSKQNKKSTDAFSKYMRKLFGIQEITESQREYIEKLERELESAKGTLSTREEKEMIRGLVKFGNIMVKQIMCPRMDMAAVDIALNYEQLQEYISTCGFSRIPVYKESADKIEGVLNIKDLFPFYNKEKDFNWQQLIRTVEFIPETKLIEELLREFQLKHLHMAIVVDEYGGTAGLITMEDVIEEIVGDIHDEYDDDEKPYAQLSDTSYLFEGKISLVDFYKAIELDKDIFDEVKGESETLGGLLLNINSDLPRLGDEIIYEGYVFKIDAVNSKRILRVKVTVPENSENEK	soluble
MSEIKQLPTRDEVPTPLTWDLTKIFKDDAAFDVAYNQLIEELNQAESFKGTLGDGAEAFLAALEYVLDVYRKVETLYVYSHLKNDQDTTNTAYQALYARASSLYAQVSEAVSWFDPEVLTLSDEQIWGYFEEQPKLAVYRHYIQNILDERPHVLSMEQEALLAGASEIFGASSNTFSILNNADLEFPTVQNAEGETIQLSHGVYGQLMESVDPSVREAAFKGLYKVYKQFRNTLASTLGAHVKTHNYKAKIRNYDSARAASLASNHIPESVHETLVAVVNKHLPLLHRYVKLRKKLLNVEELHMYDLYAPLLGEAPIRYSYEEAKEKAIEALKPLGEDYLSIVKEAFSSRWIDVIENQGKRSGAYSSGAYDTAPYILMNWHDSLDQLFTLVHEMGHSVHSYYTRNNQPYVYGDYSIFLAEIASTTNENILTEYLLQTETDPKVRAYVLNHYLDGFKGTIFRQTQFAEFEHFIHTEDAKGTPLTSEYLSEYYGELNAKYYGPEVVRDEEISYEWARIPHFYYNYYVYQYATGFSAASALSKHILAGEEGALENYLNYLKAGSSDFPIEVMKKAGVDMTQAAYIEDAMKVFEERLTELEALVEKL	not soluble
MSEILVLNCGSSSVKFALINPHTSQSLVTGLAENIATKNCKVVFKAEHKIVKYLENGSYKDVFEMLKDFLVENKHLEKIVAIGHRVVHGGQYFSKSVLINADSLEKIKACIALAPLHNPAHIEGIRFCQQIFPELPQVAVFDTAFHQTMPSYIAEYAIPYELTHKHNIRKYGAHGTSHKYVSEQAAKILTQQKANVIVAHLGNGCSITAVVDGKSIDTSMGLTPLDGLVMGTRSGCIDPSIFAYISDNLGWSVTEITNMLNKQSGLLGICGHNDMREVSQLAAKGDSLAKLAIEIFSHRVAKFVASYMIYFNKLDALVFTGGIGENAANIRKNIISKLANLGFMIDHQKNSNSETFINSKNSHNIMVIATNEELMIAQETQNLI	soluble
MSEKLDLTRFEKKMVIRNIEEKDIDKIIDLQKDCFPGMEPWKREHLISHLEHFPEGQFCAEFEGEIIGSCSSLLINFDEYDDRHTWQDITDDGYITNHNPDGLNMYGIEVMVHPKYRRMKIGHRLYEARKDLARRLSLKSIIIGGRIPNYHKYAEEMTAREYVEQVTRHQIYDPVLSFQLMNGFTLMRINPNYLPDDTASIKY	not soluble
MSEKLVLSSGKCFLHEVLCRREEKEYRQNRANLRRGADTTTEVYAFPYVYPQLPQEATTQERLVLMRVAALAAEFGNIPAVGSDTPAKSLGRWAYEVSRQRMLDRQQQVAFNPKKLDVVGERLAYLHTQDFEEAVRAVSRLMSIASSLSNVPAFDYIALYSLFSYWGNGISEKSQRVRMRVLQDYYGSFGSLIE	not soluble
